Two molecules from US20100015637A1 (AbbVie / Abbott, published 2010) can be followed below.

The target of test [1] is CHO human PlGF-1 comprising amino acids 1-137 (human PlGF-1-His (1-131), CHO 6305) (human) (UniProt P49763). In words: … sandwich, capture MAb264, detection pAb264; antigen 15 pg/mL.
Test [2] addresses CHO human PlGF-1 fragment (comprising amino acids 17-131; ATCC PTA-8540) (human) (UniProt P49763). Described as above.
Test [3] addresses human PlGF-1 comprising amino acids 1-137 produced in human embryonic kidney cells (human) (UniProt P49763). The description is as above.
Test [4] deals with human PlGF-1 fragment (comprising amino acids 17-131) produced in human embryonic kidney cells (human) (UniProt P49763). The description is as above.
The target of test [5] is recombinant human PlGF-1 (comprising amino acids 1-131) expressed in E. coli (R&D Systems) (human) (UniProt P49763). Described as above.
The target in test [6] is CHO human PlGF-1 comprising amino acids 1-137 (human PlGF-1-His (1-131), CHO 6305) (human) (UniProt P49763). In words: … sandwich, capture MAb264, detection pAb264; antigen 60 pg/mL.
Test [7] has as its target CHO human PlGF-1 fragment (comprising amino acids 17-131; ATCC PTA-8540) (human) (UniProt P49763). The description is as above.
Test [8] addresses human PlGF-1 comprising amino acids 1-137 produced in human embryonic kidney cells (human) (UniProt P49763). The test is described as above.
The target in test [9] is human PlGF-1 fragment (comprising amino acids 17-131) produced in human embryonic kidney cells (human) (UniProt P49763). Described as above.
In test [10] the target is recombinant human PlGF-1 (comprising amino acids 1-131) expressed in E. coli (R&D Systems) (human) (UniProt P49763). The description is as above.
Test [11] addresses CHO human PlGF-1 comprising amino acids 1-137 (human PlGF-1-His (1-131), CHO 6305) (human) (UniProt P49763). In words: … sandwich, capture MAb264, detection pAb264; antigen 250 pg/mL.
Test [12] concerns the target CHO human PlGF-1 fragment (comprising amino acids 17-131; ATCC PTA-8540) (human) (UniProt P49763). The description is as above.
For test [13], the target named is human PlGF-1 comprising amino acids 1-137 produced in human embryonic kidney cells (human) (UniProt P49763). The test is described as above.
Test [14] addresses human PlGF-1 fragment (comprising amino acids 17-131) produced in human embryonic kidney cells (human) (UniProt P49763). The test is described as above.
Test [15] addresses recombinant human PlGF-1 (comprising amino acids 1-131) expressed in E. coli (R&D Systems) (human) (UniProt P49763). Described as above.
The target of test [16] is CHO human PlGF-1 comprising amino acids 1-137 (human PlGF-1-His (1-131), CHO 6305) (human) (UniProt P49763). In words: … sandwich, capture MAb264, detection pAb264; antigen 750 pg/mL.
The target in test [17] is CHO human PlGF-1 fragment (comprising amino acids 17-131; ATCC PTA-8540) (human) (UniProt P49763). The description is as above.
In test [18] the target is human PlGF-1 comprising amino acids 1-137 produced in human embryonic kidney cells (human) (UniProt P49763). The test is described as above.
Test [19] concerns the target human PlGF-1 fragment (comprising amino acids 17-131) produced in human embryonic kidney cells (human) (UniProt P49763). Described as above.
Test [20] has as its target recombinant human PlGF-1 (comprising amino acids 1-131) expressed in E. coli (R&D Systems) (human) (UniProt P49763). The description is as above.
Test [21] concerns the target CHO human PlGF-1 comprising amino acids 1-137 (human PlGF-1-His (1-131), CHO 6305) (human) (UniProt P49763). In words: … sandwich, capture MAb264, detection pAb264; antigen 1500 pg/mL.
Test [22] addresses CHO human PlGF-1 fragment (comprising amino acids 17-131; ATCC PTA-8540) (human) (UniProt P49763). Described as above.
Test [23] deals with human PlGF-1 comprising amino acids 1-137 produced in human embryonic kidney cells (human) (UniProt P49763). The description is as above.
In test [24] the target is human PlGF-1 fragment (comprising amino acids 17-131) produced in human embryonic kidney cells (human) (UniProt P49763). The description is as above.
The target in test [25] is recombinant human PlGF-1 (comprising amino acids 1-131) expressed in E. coli (R&D Systems) (human) (UniProt P49763). The test is described as above.
Test [26] addresses CHO human PlGF-1 comprising amino acids 1-137 (human PlGF-1-His (1-131), CHO 6305) (human) (UniProt P49763). In words: … sandwich, capture MAb264, detection pAb264; antigen 0 pg/mL (blank).
Test [27] concerns the target CHO human PlGF-1 fragment (comprising amino acids 17-131; ATCC PTA-8540) (human) (UniProt P49763). The description is as above.
For test [28], the target named is human PlGF-1 comprising amino acids 1-137 produced in human embryonic kidney cells (human) (UniProt P49763). The test is described as above.
Test [29] deals with human PlGF-1 fragment (comprising amino acids 17-131) produced in human embryonic kidney cells (human) (UniProt P49763). The description is as above.
Test [30] deals with recombinant human PlGF-1 (comprising amino acids 1-131) expressed in E. coli (R&D Systems) (human) (UniProt P49763). Described as above.
Test [31] concerns the target T1, CHO human PlGF-1 comprising amino acids 1-137 (human PlGF-1-His (1-131), CHO 6305) (human, UniProt P49763 19-221, N-glycans at N21 (completely glycosylated) and N89 (partially glycosylated)).
T1 construct: Mature human PlGF-1 with 6xHis tag (137 amino acids); also called CHO (1-137)
T1 sequence: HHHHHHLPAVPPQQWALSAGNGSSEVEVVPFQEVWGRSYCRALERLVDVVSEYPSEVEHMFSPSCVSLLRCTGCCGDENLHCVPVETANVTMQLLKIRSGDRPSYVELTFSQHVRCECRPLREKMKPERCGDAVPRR
In words: sandwich chemiluminescent EIA, 1-255-713 coated, acridinium 2-826-335 Fab'2 detection. The protocol:
After the capture reagent had been coated on the solid phase, it was removed and any unoccupied binding sites remaining on the plates were blocked using a 2% Fish Gel solution in PBS. The plates were washed and log 2 serial dilutions of recombinant antigen (rAg) lots, starting at 10,000 pg/mL in research phase […]® Human PlGF-1 calibrator diluent (which comprises a buffer containing MES, other salt, a protein blocker and an antimicrobial; Abbott Laboratories, Abbott Park, Ill.), were added to the plate for a one-hour incubation. Purified human PlGF-1 rAg (R&D Systems Minneapolis, Minn.) that was produced in E. coli was used as a positive control and purified NGAL) rAg was used as a negative control in this assay. […] Luminescence counts per second (LCPS) were measured on a Microbeta Jet instrument (Perkin Elmer, Waltham Mass.). The plate was loaded in the instrument where 100 μl of Architect Pre-trigger Solution (Abbott Laboratories, Abbott Park, Ill.) is added to each well, followed by 100 ul of Architect Trigger Solution is added before flash chemiluminescence is read and recorded. A calibration curve was generated with each rAg and recorded in the following graph.

Take “monoclonal antibody 264 (mouse anti-human PlGF-1, Clone 37203, R&D Systems Catalog Number MAB264)”: the RLU in test [1] was found to be 6370 RLU; in test [2], 6870 RLU; in test [3] it was 10400 RLU; in test [4], 8590 RLU; in [5] it was 15600 RLU; in test [6], 13800 RLU. Moreover, the RLU in test [7] is 14800 RLU; in test [8], 31300 RLU; in test [9], 23500 RLU; in test [10], 55000 RLU; in test [11], 38900 RLU; in test [12], 46000 RLU. For the same molecule, the RLU was found to be 109000 RLU in [13]; 77900 RLU in [14]; 196000 RLU in test [15]; 106000 RLU in [16]; 120000 RLU in test [17]; 277000 RLU in test [18]. The RLU amounted to 206000 RLU in test [19]; 352000 RLU in test [20]; 201000 RLU in test [21]; 223000 RLU in test [22]; 507000 RLU in test [23]; 403000 RLU in [24]. In addition, the RLU is 937000 RLU in [25]; 4650 RLU in test [26]; 4680 RLU in [27]; 4750 RLU in test [28]; 4880 RLU in test [29]; 5110 RLU in test [30].

B1: acridinium labeled Fab'2 fragment of human PlGF-1 antibody 2-826-335 (other)
VH: QVQLKQSGPGLVQPSQSLSITCTVSGFSLTTYGIHWVRQSPGKGLEWLGVMWSGGDTDYDAAFISRLSISKDNSKSQVFFKMNSLQANDTGIYYCARYRFYGMDYWGQGTSVTVSS
VL: AIQMTQSSSSFSVSLGDRVTITCKASEDIYNRFAWYQQKPGNAPRLLISGAASLEAGVPSRFSGSGSGQDYTLSITSLQTEDVATYYCQQYWSTPWTFGGGTKLEIKR
modifications: acridinium labeled
Turning to B1, the binding result in [31] is “binds”.
